Data taken from patent US7244430 (CRUCELL HOLLAND B V, dated 2007).

T1: recombinantly expressed purified soluble WNV E protein (strain 382-99) (West Nile virus strain 382-99, UniProt Q9Q6P4 291-696)
T1 construct: also called recombinant WNV-E protein; truncated E protein; not shown: Myc tag and His tag
T1 sequence: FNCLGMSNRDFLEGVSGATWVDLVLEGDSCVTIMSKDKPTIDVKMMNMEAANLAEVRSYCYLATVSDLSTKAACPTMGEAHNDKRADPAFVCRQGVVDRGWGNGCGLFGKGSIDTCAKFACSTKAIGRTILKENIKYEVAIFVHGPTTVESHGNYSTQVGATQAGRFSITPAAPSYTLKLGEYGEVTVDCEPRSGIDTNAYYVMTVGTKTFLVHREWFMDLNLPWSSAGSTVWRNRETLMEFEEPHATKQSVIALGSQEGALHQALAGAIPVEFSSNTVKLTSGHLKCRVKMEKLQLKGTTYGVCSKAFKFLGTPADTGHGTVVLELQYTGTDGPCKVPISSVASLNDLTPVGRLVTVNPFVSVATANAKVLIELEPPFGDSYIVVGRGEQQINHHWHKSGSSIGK


Key:
[1] = biological target: T2, West Nile virus strain USA99b (strain 385-99) (West Nile virus strain 385-99 (USA99b)); assay: phage ELISA, coated whole inactivated WNV
T2 construct: mature; also called WNV; WN virus

[2] = biological target: T1, recombinantly expressed purified …; assay: phage ELISA, coated recombinant soluble WNV E protein
[3] = biological target: T1, recombinantly expressed purified …; assay: as above; remark: listed apart in the source
[4] = biological target: T3, mutant WNV-like particles K307E (West Nile virus strain 382-99, UniProt Q9Q6P4 291-791; Q9Q6P4 216-290); assay: ELISA on mutant VLP
T3 construct: also called mutant K307E

[5] = biological target: T4, mutant WNV-like particles A365V (West Nile virus strain 382-99, UniProt Q9Q6P4 291-791; Q9Q6P4 216-290); assay: ELISA on mutant VLP, normalized to wild-type VLP
T4 construct: also called mutant A365V

[6] = biological target: T5, WNV-like particles (wild-type VLP, strain 382-99 M and E proteins) (West Nile virus strain 382-99, UniProt Q9Q6P4 291-791; Q9Q6P4 216-290); assay: titration of purified IgM on VLPs
T5 construct: also called West Nile virus-like particles; WT

[7] = biological target: T6, mutant WNV-like particles T332K (West Nile virus strain 382-99, UniProt Q9Q6P4 291-791; Q9Q6P4 216-290); assay: ELISA on mutant VLP, normalized to wild-type VLP
T6 construct: also called mutant T332K

Binder | OD 492 nm [1] [OD 492 nm] | OD 492 nm [2] [OD 492 nm] | also measured
SC04-271 (scFv) scFv: EVQLVETGAEVKKPGESLRISCKGSGYTFNNYWIGWVRQMPGKGLEWMGIIYPGDSDTRYSPSVQGHVTISADKSINTAYLQWSSLKASDTAVYYCARRPGYDYGFYYFDYWGQGTLVTVSSGTGGSGGTGSGTGGSTQSALTQPRSVSGSPGQSVTISCTGTSSDVGGYNYVSWYQHHPGKAPKLMIYDVSNRPLGVSNRFSGSKSGNTASLTISGLQAEDEADYYCSSYTSSSTYVFGTGTHLTVLS | 0.984 | 0.608 | –
SC04-374 (scFv) scFv: QVTLKESGPTLVKPTQTLTLTCTFSGFSLSTSGVGVGWIRQPPGKALEWLAVIYWNDDKLYRPSLKSRLTITKDTSKNQVVLTMTKMDPVDTATYYCAHRHRYYDISGYYRLFSDAFDIWGQGTMVTVSSGTGGSGGTGSGTGGSTQSVVTQPPSVSGAPGQRVTISCTGSSSNIGAGYDVHWYQQLPGTAPKLLIYGNSNRPSGVPDRFSGSKSGTSASLAITGLQAEDEADYYCQSYDSSLSGSVFGGGTKLTVLG | – | 1.36 | –
SC04-311 (scFv) scFv: EVQLVQSGGGVVQPGRSLRLSCVASGFTFSKDAMHWVRQAPGKGLEWVAVISYDGSDKHYADSVKGRVTISRDNSRKTLYLRMDSLRAEDTALYYCARGYNSGHYFDYWGQGTLITVSSGTGGSGGTGSGTGGSTQSVLTQPPSVSAAPGQKVTISCSGTSSNIGDNYVSWYQHLPGTAPKLLIYDNNKRPSGIPDRFSGSKSGTSATLGVTGLQTGDEADYYCGTWDSSLTAVVFGGGTKLTVLG | 1.04 | 1.54 | –
SC04-353 (scFv) scFv: EVQLVQSGGGVVQPGRSLRLSCAASGFTFSNYAMHWVRQAPGKGLEWVAVISYDGGNKYYADSVKGRFTMSRDNSKNTLYLQMNSLRAEDTAVYYCARDFWSGYSMVDSYYYYMDVWGKGTTVTVSSGTGGSGGTGSGTGGSTETTLTQSPGTLSLSPGERATLSCRASQSVSNTFLAWYQQKPGQAPRLLIYGASSRATGIPDRFSGSGSGTDFTLTISRLEPEDFAAYYCQQYGSSLTFGPGTKVDIKR | – | 0.099 | binding result [3]: no binding
SC04-361 (scFv) scFv: EVQLVQSGAEVKKPGESLKISCKASGFSFSTYWIGWVRQMPGKGLEWMGIIYPADSDTRYSPSFQGQVTISADKSISTAYLQWSSLKASDTAMYYCARLRGPYYDFWNGYRETHDAFNVWGQGTMVTVSSGTGGSGGTGSGTGGSTDVVMTQSPDSLAVSLGERATINCKSSQNILDNSDNKNFLAWYQQKPGQPPKLLIYWASARESGVPDRFSGSGSGTDFTLTISSLQAEDVALYYCQQYYNTPITFGQGTRLEIKR | – | 0.076 | binding result [3]: no binding
CR5080 (antibody, V domains shown) VH: QVTLKESGPTLVKPTQTLTLTCTFSGFSLSTSGVGVGWIRQPPGKALEWLAVIYWNDDKLYRPSLKSRLTITKDTSKNQVVLTMTKMDPVDTATYYCAHRHRYYDISGYYRLFSDAFDIWGQGTMVTVSS VL: QSVLTQPPSVSGAPGQRVTISCTGSSSNIGAGYDVHWYQQLPGTAPKLLIYGNSNRPSGVPDRFSGSKSGTSASLAITGLQAEDEADYYCQSYDSSLSGWAFGGGTKLTVLG | – | – | binding result [4]: no binding; % of wild-type binding [5]: ~37%
SC04-289 (scFv) scFv: QMQLVQSGAEVKKPGESLRISCKGSGYSFTSNWITWVRQMPGKGLEWMGRIDPSDSYTNYSPSFQGHVTISADKSISTAYLQWSSLKASDTAMYYCARDVVGVGASDYYYYMDVWGKGTTVTVSSGTGGSGGTGSGTGGSTEIVLTQSPGTLSLSPGETATLSCRTSQSVSSSYLGWYQQKPGQAPRLLIYGASIRATGIPARFSGSGSGTEFTLTIDSLQSEDFAVYYCQQYNNWPPITFGQGTRLEIKR | 0.759 | 1.39 | –
CRM4374 (antibody, also called IgM form of CR4374) heavy: QITLKESGPTLVKPTQTLTLTCTFSGFSLSTSGVGVGWIRQPPGKALEWLAVIYWNDDKLYRPSLKSRLTITKDTSKNQVVLTMTKMDPVDTATYYCAHRHRYYDISGYYRLFSDAFDIWGQGTMVTVSSASAPTLFPLVSCENSPSDTSSVAVGCLAQDFLPDSITFSWKYKNNSDISSTRGFPSVLRGGKYAATSQVLLPSKDVMQGTDEHVVCKVQHPNGNKEKNVPLPVIAELPPKVSVFVPPRDGFFGNPRKSKLICQATGFSPRQIQVSWLREGKQVGSGVTTDQVQAEAKESGPTTYKVTSTLTIKESDWLSQSMFTCRVDHRGLTFQQNASSMCVPDQDTAIRVFAIPPSFASIFLTKSTKLTCLVTDLTTYDSVTISWTRQNGEAVKTHTNISESHPNATFSAVGEASICEDDWNSGERFTCTVTHTDLPSPLKQTISRPKGVALHRPDVYLLPPAREQLNLRESATITCLVTGFSPADVFVQWMQRGQPLSPEKYVTSAPMPEPQAPGRYFAHSILTVSEEEWNTGETYTCVVAHEALPNRVTERTVDKSTGKPTLYNVSLVMSDTAGTCY light: QSVLTQPPSVSGAPGQRVTISCTGSSSNIGAGYDVHWYQQLPGTAPKLLIYGNSNRPSGVPDRFSGSKSGTSASLAITGLQAEDEADYYCQSYDSSLSGSVFGGGTKLTVLGQPKAAPSVTLFPPSSEELQANKATLVCLISDFYPGAVTVAWKADSSPVKAGVETTTPSKQSNNKYAASSYLSLTPEQWKSHRSYSCQVTHEGSTVEKTVAPTECS | – | – | binding result [6]: binds
CR4374 (antibody, also called CR374) heavy: not shown light: QSVLTQPPSVSGAPGQRVTISCTGSSSNIGAGYDVHWYQQLPGTAPKLLIYGNSNRPSGVPDRFSGSKSGTSASLAITGLQAEDEADYYCQSYDSSLSGSVFGGGTKLTVLGQPKAAPSVTLFPPSSEELQANKATLVCLISDFYPGAVTVAWKADSSPVKAGVETTTPSKQSNNKYAASSYLSLTPEQWKSHRSYSCQVTHEGSTVEKTVAPTECS | – | – | binding result [4]: no binding; % of wild-type binding [7]: ~75%
SC04-299 (scFv) scFv: EVQLVETGGGVVQPGRSLRLSCAASGFTFSGYAMHWVRQAPGKGLDWVAVISYDGSEKYSADSVKGRFTISRDNSKNTLYLQMNSLRAEDTAVYYCAKESGGPIWYKYYGVDVWGQGTTVTVSSGTGGSGGTGSGTGGSTSYVLTQPPSLSAAPRQRVTISCSGSSSNIGNYGVNWYQQLPGKAPKLLIYYDDLLPSGVSDRFSGSKSGTSASLAISGLQSEDEGDYYCAAWDDTLSAWVFGGGTKLTVLG | 1.07 | – | –
SC04-283 (scFv) scFv: EVQLVQSGAEVKKSGESLKISCKGSGYTFNTYWIGWVRQMPGKGLEWMGIIYPGDSDTIYSPSFQGQVTISADKSISTAYLQWSSLKASDSAMYYCARLTFRRGYSGSDSFLPPGDFDYWGQGTLVTVSSGTGGSGGTGSGTGGSTDIQMTQSPSTLSASVGDRVTITCRASQSISSWLAWYQQKPGKAPNLLIYAASSLQSGVPSRFSGSGSGTDFTLTISSLQPDDSATYYCQQYNTYPLTFGGGTKVEIKR | 1.21 | 0.074 | –
SC04-325 (scFv) scFv: QMQLVQSGAEVKKPGSSVKVSCKASGDTFSSYAISWVRQAPGQGLEWMGGIFGTASYAQKFQGRVTITADESTSTAYMELSSLRSEDTAVYYCARGGMATTPGLDYWGQGTLVTVSSGTGGSGGTGSGTGGSTDIQLTQSPDSLAVSLGERATINCKSSQSVLYSSNNKNYLAWYQQKPGQPPKLLIYWASTRESGVPDRFSGSGSGTDFTLTISSLQAEDVAVYYCQQYYSTPLTFGQGTKVEIKR | – | 1.4 | –
